Consider 5 molecules from patent US20180141975A1 (VIROGIN BIOTECH CANADA, published 2018).

One test addresses T1, mouse PD-L1 Fc (mouse, UniProt Q9EP73 19-238).
T1 construct: Plate-coated reagent; not shown: Fc part
Nature of the test: competition ELISA, peptide at 3 and 10 uM against mouse PD-1 Fc on coated mouse PD-L1 Fc (FIG. 9A). As to the method:
More specifically, mouse and human WT and TF peptides (3 and 10 μM) were mixed with recombinant mouse PD-1 Fc and bound to a mouse PD-L1 Fc coated 96-well Immuno Maxisorp flat bottom plate. Binding was detected via a biotinylated anti-mouse PD-1 antibody, streptavidin-horseradish peroxidase (HRP), and 3,3′, 5,5′ Tetramethylbenzidine (TMB) substrate. Absorbance measurements were collected at 450 nm via a plate reader. The increased percent (%) of mouse (and human) PD-1/PD L1 inhibition was compared to a control (no peptide) sample. […] The differences between the human and mouse peptides are illustrated in FIG. 9B.
(In an ELISA, binding on a coated surface is turned into a signal by an enzyme label.)

Test [1] deals with T2, recombinant human PD-L1 Fc (human, UniProt Q9NZQ7 19-239).
T2 construct: Recombinant reagent; not shown: Fc part
T2 sequence (Q9NZQ7 19-239 limits assumed): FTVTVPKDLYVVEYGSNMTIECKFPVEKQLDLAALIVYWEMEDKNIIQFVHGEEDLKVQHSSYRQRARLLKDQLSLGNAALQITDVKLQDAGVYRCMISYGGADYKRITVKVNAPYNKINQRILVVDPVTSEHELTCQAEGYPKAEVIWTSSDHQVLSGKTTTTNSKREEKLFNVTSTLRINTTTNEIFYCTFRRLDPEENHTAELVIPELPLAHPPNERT
In words: summary of the examples (competition ELISA, peptide array).

In test [2] the target is T2, recombinant human PD-L1 Fc. In words: competition ELISA, peptides and combinations at 3 and 10 uM against human PD-1 Fc on coated human PD-L1 Fc (FIG. 5A).

T1 sequence (Q9EP73 19-238 limits assumed): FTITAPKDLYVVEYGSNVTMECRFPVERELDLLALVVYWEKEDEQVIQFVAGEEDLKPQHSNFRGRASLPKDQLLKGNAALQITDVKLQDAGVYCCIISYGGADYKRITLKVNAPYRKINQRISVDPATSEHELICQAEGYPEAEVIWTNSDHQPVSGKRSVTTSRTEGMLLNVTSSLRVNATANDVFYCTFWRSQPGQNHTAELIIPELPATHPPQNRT

B1: Mouse TF peptide (SEQ ID NO:36, TRYPSPSPKPEGRF) (peptide)
peptide: TRYPSPSPKPEGRF
Regarding B1, the binding result with mouse PD-L1 Fc was “binds”.

B2: Mouse WT peptide (SEQ ID NO:35, WNRLSPSNQT) (peptide)
peptide: WNRLSPSNQT
For the molecule B2, the binding result with mouse PD-L1 Fc is “binds”.

B3: WT peptide (SEQ ID NO:1, WYRMSPSNQT) (peptide)
peptide: WYRMSPSNQT
notes: Chemically synthesized peptide found by a peptide array method; also called human WT peptide
Take B3: in test [1], the binding result was “binds”.

B4: ET peptide (SEQ ID NO:25, EYRMSPSNQT) (peptide)
peptide: EYRMSPSNQT
notes: A derivative of the WT peptide (W1E)
Consider B4, for which, in test [2], the binding result is given as “binds”.

B5: YT peptide (SEQ ID NO:28, YYRMSPSNQT) (peptide)
peptide: YYRMSPSNQT
notes: A derivative of the WT peptide (W1Y)
Take B5: the binding result in test [2] was “binds”.
